Numbering of substitutions follows the chain as printed.
B1: 40 bp BREX (dsDNA)
DNA 1: TCAGTAGTCAAGTCAGTGGTAAGGTCAGGACAGGAGTCAG
DNA 2: CTGACTCCTGTCCTGACCTTACCACTGACTTGACTACTGA
B2: 40 bp BREX 4C (dsDNA)
DNA 1: B1 DNA 1 with A21C
DNA 2: B1 DNA 2 with T20G
B3: 40 bp BREX 4G (dsDNA)
DNA 1: B1 DNA 1 with A21G
DNA 2: B1 DNA 2 with T20C
B4: 40 bp BREX 4T (dsDNA)
DNA 1: B1 DNA 1 with A21T
DNA 2: B1 DNA 2 with T20A

Target: T1, BrxX G785T/N823S (TRD variant) (Escherichia coli HS, UniProt P0DUF9 1-1205, G785T;N823S)
T1 sequence: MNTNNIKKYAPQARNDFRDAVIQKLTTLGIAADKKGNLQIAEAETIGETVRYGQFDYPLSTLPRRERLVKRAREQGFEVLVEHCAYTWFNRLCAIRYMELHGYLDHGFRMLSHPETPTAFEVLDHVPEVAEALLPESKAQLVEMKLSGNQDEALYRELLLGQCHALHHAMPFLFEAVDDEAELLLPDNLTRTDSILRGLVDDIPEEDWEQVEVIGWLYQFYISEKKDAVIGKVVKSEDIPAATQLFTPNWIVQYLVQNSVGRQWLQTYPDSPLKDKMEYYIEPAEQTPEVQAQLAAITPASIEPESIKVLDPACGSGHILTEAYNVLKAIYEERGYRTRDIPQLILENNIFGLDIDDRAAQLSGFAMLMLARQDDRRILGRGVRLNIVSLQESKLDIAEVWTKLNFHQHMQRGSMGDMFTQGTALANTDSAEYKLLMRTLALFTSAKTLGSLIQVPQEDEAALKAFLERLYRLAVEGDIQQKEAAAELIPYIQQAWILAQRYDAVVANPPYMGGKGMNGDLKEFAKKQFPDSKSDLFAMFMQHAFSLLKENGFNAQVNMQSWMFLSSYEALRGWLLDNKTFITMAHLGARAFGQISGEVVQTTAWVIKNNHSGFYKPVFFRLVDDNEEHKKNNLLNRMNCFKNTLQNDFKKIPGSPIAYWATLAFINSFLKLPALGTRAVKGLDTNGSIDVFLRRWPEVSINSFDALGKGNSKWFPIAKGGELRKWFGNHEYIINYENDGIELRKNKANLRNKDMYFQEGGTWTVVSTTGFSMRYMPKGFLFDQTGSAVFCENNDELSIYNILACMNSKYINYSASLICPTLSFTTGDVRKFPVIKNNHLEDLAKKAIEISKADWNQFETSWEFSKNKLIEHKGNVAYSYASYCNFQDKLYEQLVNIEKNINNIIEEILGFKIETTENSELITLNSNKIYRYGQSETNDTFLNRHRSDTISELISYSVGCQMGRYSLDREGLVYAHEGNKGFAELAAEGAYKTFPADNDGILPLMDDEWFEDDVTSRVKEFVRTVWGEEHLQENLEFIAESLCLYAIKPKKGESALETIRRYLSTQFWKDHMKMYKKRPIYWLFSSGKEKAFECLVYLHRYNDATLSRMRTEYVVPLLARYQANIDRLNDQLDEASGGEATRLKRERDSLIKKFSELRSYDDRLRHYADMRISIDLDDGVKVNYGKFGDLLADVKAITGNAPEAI
Assay: EMSA; decreased affinity; EMSA: 20 nM Cy5-DNA, 0.5x TBE pH 8.0, 35 mM NaCl, 5% glycerol, +/-0.5 mM SAM or SAH, 30 min, room temperature; BLI: 20 mM Tris-HCl pH 8.0, 100 mM NaCl, 0.05 mg/mL BSA, 0.02% Tween-20, +/-0.5 mM SAM, 30 C
Conditions: protein: recombinant; tags: N-His6; label: 5'-Cy5 on strand 1; blunt

| Binder | binding result |
| --- | --- |
| B1 | binds |
| B2 | binds |
| B3 | binds |
| B4 | binds |

From article PMC11842806, “Molecular basis of foreign DNA recognition by BREX anti-phage immunity system” (Nature Communications, 2025)
